# Residue numbers refer to the chain shown, from its start.
# B1: ttGGBP17C.2: affinity-tuning mutant, 17C background, SEQ ID NO: 67 (protein)
# chain: MKQLNIGVAIYKFDDTCMTGVRNAMTAEAQGKAKLNMVDSQNSQPTQNDQVDLFITKKMNALAINPVDPTAAGTIIDKAKQANIPVVFFNREPLPEDMKKWDKVYYVGAKAEQSGILQGQIMADYWKAHPEADKNHDGVMQYVMLMGQPGHPDAILRTQYSIQTVKDAGIKVQELAKDYANWDRVTAHDKMAAWLSSFGDKIEAVFANNDDMALGAIEALKSAGYFTGNKYIPVVGVDATAPGIQAIKDGTLLGTVLNDAKNQAKATFNIAYELAQGITPTKDNIGYDITDGKYVWIPYKKITKDNISDAEQGGSHHHHHH
# modifications: ttGGBP17C.2 (affinity-tuning mutant, 17C background (Table 6) with signal peptide replaced with M and GGSHHHHHH at C-terminus)
# B2: ttGGBP17C.4: affinity-tuning mutant, 17C background, SEQ ID NO: 69 (protein)
# chain: B1 chain with P69R, H151Q, P152Q
# modifications: ttGGBP17C.4 (affinity-tuning mutant, 17C background (Table 6) with signal peptide replaced with M and GGSHHHHHH at C-terminus)
# B3: ttGGBP17C.25: affinity-tuning mutant, 17C background, SEQ ID NO: 83 (protein)
# chain: B1 chain with P69R, P152Q, A260K
# modifications: ttGGBP17C.25 (affinity-tuning mutant, 17C background (Table 6) with signal peptide replaced with M and GGSHHHHHH at C-terminus)
# B4: ttGGBP17C.3: affinity-tuning mutant, 17C background, SEQ ID NO: 68 (protein)
# chain: B1 chain with T16N, P69R, P152Q, D211A
# modifications: ttGGBP17C.3 (affinity-tuning mutant, 17C background (Table 6) with signal peptide replaced with M and GGSHHHHHH at C-terminus)
# B5: ttGGBP17C.24: affinity-tuning mutant, 17C background, SEQ ID NO: 82 (protein)
# chain: B1 chain with P69R, P152Q, A260R
# modifications: ttGGBP17C.24 (affinity-tuning mutant, 17C background (Table 6) with signal peptide replaced with M and GGSHHHHHH at C-terminus)
# B6: ttGGBP17C.1: affinity-tuning mutant, 17C background, SEQ ID NO: 66 (protein)
# chain: B1 chain with P69R, R91K, Q148E, P152Q
# modifications: ttGGBP17C.1 (affinity-tuning mutant, 17C background (Table 6) with signal peptide replaced with M and GGSHHHHHH at C-terminus)
# B7: ttGGBP17C.11: affinity-tuning mutant, 17C background, SEQ ID NO: 76 (protein)
# chain: B1 chain with P69R, P152Q, T240A
# modifications: ttGGBP17C.11 (affinity-tuning mutant, 17C background (Table 6) with signal peptide replaced with M and GGSHHHHHH at C-terminus)
# B8: ttGGBP17C.5: affinity-tuning mutant, 17C background, SEQ ID NO: 70 (protein)
# chain: B1 chain with D15A, P69R, P152Q
# modifications: ttGGBP17C.5 (affinity-tuning mutant, 17C background (Table 6) with signal peptide replaced with M and GGSHHHHHH at C-terminus)
# B9: ttGGBP17C.10: affinity-tuning mutant, 17C background, SEQ ID NO: 75 (protein)
# chain: B1 chain with G20A, P69R, P152Q
# modifications: ttGGBP17C.10 (affinity-tuning mutant, 17C background (Table 6) with signal peptide replaced with M and GGSHHHHHH at C-terminus)
# B10: ttGGBP17C.29: affinity-tuning mutant, 17C background, SEQ ID NO: 87 (protein)
# chain: B1 chain with P69R, P152Q, A260S
# modifications: ttGGBP17C.29 (affinity-tuning mutant, 17C background (Table 6) with signal peptide replaced with M and GGSHHHHHH at C-terminus)
# B11: ttGGBP17C.22: affinity-tuning mutant, 17C background, SEQ ID NO: 80 (protein)
# chain: B1 chain with P69R, P152Q, A260N
# modifications: ttGGBP17C.22 (affinity-tuning mutant, 17C background (Table 6) with signal peptide replaced with M and GGSHHHHHH at C-terminus)
# Test: Galactose binding: isothermal fluorescence titrations of conjugates
# Set-up: key to Galactose trueKd: nb, no bonding
# Conditions: Acrylodan conjugate; S > 1, selective for glucose
row,"S, selectivity = trueKd(galactose)/trueKd(glucose)",Molecule
1,0.28,B1
2,0.29,B2

# Same assay, conditions: Badan conjugate; S > 1, selective for glucose
row,"S, selectivity = trueKd(galactose)/trueKd(glucose)",Molecule
1,0.48,B1
2,2.2,B2

# Same assay, conditions: Badan conjugate; monochromatic titration curves; room temperature
row,Galactose trueKd,Molecule
1,nb^e,B3

# Same assay, conditions: read-out: Galactose trueKd; Acrylodan conjugate; monochromatic titration curves; room temperature
row,Kd [mM],Molecule
1,5,B1
2,14,B2
3,0.53,B4

# Same assay, conditions: read-out: Galactose trueKd; Badan conjugate; monochromatic titration curves; room temperature
row,Kd [mM],Molecule
1,5.2,B1
2,14,B2
3,29,B5
4,2.5,B4

# Test: Glucose-dependent fluorescence emission intensity spectra of conjugates (Nanodrop3300)
# Assay type: biochemical
# Conditions: Acrylodan conjugate of ttGGBP.17C mutant; Nanodrop3300
# Source text: Semi-synthetic FRSs were engineered by site-specifically attaching thiol-reactive, environmentally sensitive fluorophores that respond to ligand-mediated conformational changes. Identification of FRS candidates that are useful for sensing applications comprises three steps: • 1. Cysteine scan. Mutant glucose-binding proteins containing single cysteines are constructed for site-specific attachment of thiol-reactive fluorophores. […] Candidate positions fall into three classes: endosteric, replacing a residue that contacts the ligand directly; peristeric, located at the rim of the binding site; allosteric (Marvin et al. 1997 Proc Natl Acad Sci USA, 94, 4366-71; Marvin 1998 J Am Chem Soc, 120, 7-11), located outside the binding site at sites that undergo local structural changes in concert with the hinge-bending motion. • 2. Fluorophore screening. Thiol-reactive, environmentally sensitive fluorophores are attached to each cysteine mutant prepared in step 1. • 3. Evaluation of the glucose-mediated change of all the fluorescent conjugates prepared in step 2. Responses to ligand binding in which there is both a change in fluorescence emission intensity and spectral shape was essential for chemometric applications, because such changes enable ratiometric measurements. Changes in spectral shape typically are accompanied by a shift in the wavelength of the emission intensity maxima. Three classes of fluorescent responses are possible: • i. No response. • ii. Monochromatic response (emission intensity increases or decreases without a change in spectral shape) • iii.
row,Molecule,Type of fluorescence response to glucose
1,B1,"d (d, intensity decrease only)"
2,B2,"r(h) (r(h), ratiometric (hypsochromic shift))"
3,B6,"d (d, intensity decrease only)"
4,B7,"d (d, intensity decrease only)"
5,B4,"d (d, intensity decrease only)"
6,B8,"r(h) (r(h), ratiometric (hypsochromic shift))"
7,B9,"d (d, intensity decrease only)"

# Same assay, conditions: Badan conjugate of ttGGBP.17C mutant; Nanodrop3300
row,Molecule,Type of fluorescence response to glucose
1,B1,"r(h) (r(h), ratiometric (hypsochromic shift))"
2,B2,"r(h) (r(h), ratiometric (hypsochromic shift))"
3,B10,"i (i, intensity increase only)"
4,B6,"r(h) (r(h), ratiometric (hypsochromic shift))"
5,B5,"i (i, intensity increase only)"
6,B4,"r(h) (r(h), ratiometric (hypsochromic shift))"
7,B11,"i (i, intensity increase only)"
8,B8,"r(h) (r(h), ratiometric (hypsochromic shift))"
9,B3,"i (i, intensity increase only)"

# Test: Glucose binding: isothermal fluorescence titrations, ratiometric (appKd) and monochromatic (trueKd) fits
# Conditions: read-out: Glucose appKd; Acrylodan conjugate; dichromatic ratiometry; room temperature
# Source text: 2 For a single glucose-binding site, the fractional saturation is given by
# [formula] where ^apoIλ2 and ^satIλ2 are the emission intensities of the monochromatic signal at wavelength λ2 of the ligand-free and ligand-bound protein, respectively.
row,Kd [mM],Molecule
1,15,B1
2,50,B2
3,0.04,B7
4,1.4,B4
5,6,B8

# Same assay, conditions: read-out: Glucose appKd; Badan conjugate; dichromatic ratiometry; room temperature
row,Kd [mM],Molecule
1,8.6,B1
2,16,B2
3,0.6,B6
4,3.4,B4
5,12,B11
6,16,B8
7,3.2,B3

# Same assay, conditions: read-out: Glucose trueKd; Acrylodan conjugate; monochromatic titration curves; room temperature
row,Kd [mM],Molecule
1,18,B1
2,48,B2
3,0.04,B7
4,6,B8

# Same assay, conditions: read-out: Glucose trueKd; Badan conjugate; monochromatic titration curves; room temperature
row,Kd [mM],Molecule
1,10.8,B1
2,6.4,B2
3,0.8,B6
4,4.1,B4
5,15,B11
6,16,B8
7,3.7,B3

# Test: Thermostability: mid-point thermal denaturation temperature (Tm) from temperature-dependent fluorescence (Roche LightCycler)
# Assay type: physicochemical
# Conditions: Acrylodan conjugate; apo-protein
# Source text: Protein (un)folding is monitored by binding of SYPRO to the unfolded state as a function of temperature. Fluorescence intensity increases upon binding of SYPRO by the unfolded state.
# Panels A-C: ttGBP182C.2.0-Imm0; Panels D-F: ttGBP182C.2.0-Imm1 (see FIG. 13). (A) Solution (Tm=347.6K). (B) Immobilized on Nickel-nitriloacetic acid (Ni-NTA) beads (Tm=346.7K). (C) Reconstituted, desiccated Ni-NTA beads (Tm=347.6K). (D) Fluorescence response of ttGGBP5.2 Imm1 immobilized on NHS-functionalized agarose beads. Data was collected on a Roche LightCycler real-time PCS instrument, recording emission intensities at 488 nm and 510 nm as a function of temperature in a 384-well microtiter plate. […] Temperature melts of twelve different wells. Apo protein thermostability as reported by the denaturation mid-point temperature is 349 K, similar to the protein free in solution. […] (F) Representative Langmuir ligand-binding curve extracted from the three-dimensional data.
# Temperatures were advanced in 1K steps. […] Under these experimental photobleaching was not observed.
row,Molecule,apoTm [K]
1,B7,348
2,B8,348
3,B9,351

# Same assay, conditions: Badan conjugate; apo-protein
row,Molecule,apoTm [K]
1,B1,350
2,B2,347
3,B10,343
4,B5,344
5,B4,346
6,B11,343
7,B8,345

# Reference: patent publication US11156615B2 (priority 2015, dated 2021)
